The values below come from patent publication US20190225670A1, “COMPOUNDS AND METHODS FOR ACTIVATING TIE2 SIGNALING” (ASCLEPIX THERAPEUTICS, LLC, priority 2016, published 2019).

For experiment [1], the target named is T1, α5 and β1 integrin subunits (Homo sapiens, UniProt P05556+P08648).
T1 construct: host or cells: human dermal microvascular endothelial cells (MEC)
Briefly: Duolink protein interaction analysis. As to conditions: MEC monolayers; 100 μM AXT107 vs vehicle. Type of experiment: cell-based. The procedure:
Additionally, changes in the interaction between the α5 s and β1 subunits were further investigated using Duolink™ technology which can visualize individual interactions between α5 and β1 integrin subunits as distinct spots by fluorescence microscopy.
Glass bottom, 96-well plates were coated with FN1, seeded with MECs, as described above for the immunofluorescence experiments. After growing for forty-eight hours, cells were serum starved for three hours, treated with 100 μM AXT107 or DMSO vehicle for ninety minutes, washed twice with dPBS containing Ca^2+ and Mg^2+, and fixed in 10% neutral buffered formalin. Cells were blocked in 5% normal goat serum; 0.3% Triton X-100 in dPBS containing Ca^2+ and Mg^2+ for one hour and incubated overnight at 4° C. with rabbit anti-α5 integrin and mouse anti-β1 integrin antibodies in PBS containing Ca^2+ and Mg^2+ with 1% BSA and 0.1% Triton X-100. Interaction spots were developed using DUOLINK green detection reagent according to the manufacturer's instructions and detected using the BD pathway 855 system.

Experiment [2] deals with Akt. Briefly: Western blot of phospho-Akt (S473) in MEC lysates treated with Ang2 and AXT107. The class given is cell-based, human. The procedure:
A confluent monolayer of human microvascular endothelial cells (HMEC) was serum starved with EBM-2 overnight. After a 90 min treatment with AXT107 at concentrations of 0, 10, 32, and 100 μM, the cells were treated for 15 min with 1 mM sodium orthovanadate. Next the cells were treated with Angiopoietin-2 (Ang-2) at 200 ng/mL for 15 min. Following cell lysis, the lysates were immunoblotted for pTie2 (Y992), pSTAT3 (Y705), and pAkt (S473).
For Ang1/2 signaling investigations, cell culture dishes (10 cm diameter) were coated with 5 μg/ml fibronectin (FN1; Sigma-Aldrich, St. Louis, Mo.) for two hours at 37° C. The FN1 solution was then removed by aspiration and 5×10^6 microvascular endothelial cells (MECs; Lonza, Walkersville, Md.) were plated in EGM-2MV media (Lonza) and cultured for forty-eight hours at 37° C. […] Specific proteins were identified by Western blot, using the following primary antibodies: Cell Signaling—phospho-Tie2 (Y992) (Cat#: 4221), Tie2 (Cat#: 7403), phospho-Stat3 (Y705) (Cat#: 4113), Stat3 (Cat#: 4904), phospho-Akt (S473) (Cat#: 4058), Akt (Cat#: 9272), phospho-p44/42 MAPK (T202/Y204) (Cat#: 4370), p44/42 MAPK (Cat#: 4695); BD Transduction Laboratories—β1 integrin (Cat#: 610467); Millipore—α5 integrin (Cat#: AB1928) and detected with HRP-conjugated goat anti-rabbit and sheep anti-mouse secondary antibodies (GE healthcare).
On the technique in general: In western blotting, separated proteins are transferred to a membrane and probed.

Experiment [3] concerns VEGFR2, c-Met, IGF1R, and PDGFRβ. As to conditions: Lee et al., Sci Rep. 2014; cited from earlier work.
Experiment [4] has as its target T2, α5 integrin subunit (Homo sapiens, UniProt P08648).
T2 construct: host or cells: human dermal microvascular endothelial cells (MEC)
Nature of the experiment: Triton X-100 fractionation of MEC lysates, α5 integrin. Type of experiment: cell-based. The procedure: α5β1-integrin heterodimer and αvβ3-integrin heterodimer are primary targets of AXT107.
The isolation of Triton X-100 soluble and insoluble fractions was performed using modifications to previously-described procedures (see, e.g., Lampugnani et al., J Cell Biol. 1995; 129(1):203-217). FN1-coated six-well plates were seeded with 2.5×10^6 cells and cultured for forty-eight hours, as described above. The cultures were then serum starved for ninety minutes in EBM-2 media, treated with 100 μM AXT107 or DMSO vehicle, and fifteen minutes with 1 mM sodium vanadate. […] The plates were then transferred to ice and washed twice with cold dPBS containing Ca^2+ and Mg^2+ and twice with EBM-2 media. The media was then removed and the cells incubated for thirty minutes on ice, at 4° C. in 200 μl of Triton X-100 extraction buffer (10 mM Tris-HCl, pH 7.5; 150 mM NaCl; 2 mM CaCl2); 1% NP-40; 1% […]; and a protease inhibitor cocktail (Cell Signaling, Cat#: 5871)) with occasional agitation. The extraction buffer was gently collected and centrifuged at 12,000×g for five minutes. The supernatant was then mixed with 125 μl of 3×Blue Loading Dye, boiled, and saved as the Triton X-100 soluble fraction at −20° C. […] Samples were analyzed by western blot as described above. […]

Experiment [5] deals with integrin α5β1 (Homo sapiens, UniProt P05556+P08648). As to conditions: Lee et al., Sci Rep. 2014; cited from earlier work.
integrin α5β1, sequence (P08648 42-1049): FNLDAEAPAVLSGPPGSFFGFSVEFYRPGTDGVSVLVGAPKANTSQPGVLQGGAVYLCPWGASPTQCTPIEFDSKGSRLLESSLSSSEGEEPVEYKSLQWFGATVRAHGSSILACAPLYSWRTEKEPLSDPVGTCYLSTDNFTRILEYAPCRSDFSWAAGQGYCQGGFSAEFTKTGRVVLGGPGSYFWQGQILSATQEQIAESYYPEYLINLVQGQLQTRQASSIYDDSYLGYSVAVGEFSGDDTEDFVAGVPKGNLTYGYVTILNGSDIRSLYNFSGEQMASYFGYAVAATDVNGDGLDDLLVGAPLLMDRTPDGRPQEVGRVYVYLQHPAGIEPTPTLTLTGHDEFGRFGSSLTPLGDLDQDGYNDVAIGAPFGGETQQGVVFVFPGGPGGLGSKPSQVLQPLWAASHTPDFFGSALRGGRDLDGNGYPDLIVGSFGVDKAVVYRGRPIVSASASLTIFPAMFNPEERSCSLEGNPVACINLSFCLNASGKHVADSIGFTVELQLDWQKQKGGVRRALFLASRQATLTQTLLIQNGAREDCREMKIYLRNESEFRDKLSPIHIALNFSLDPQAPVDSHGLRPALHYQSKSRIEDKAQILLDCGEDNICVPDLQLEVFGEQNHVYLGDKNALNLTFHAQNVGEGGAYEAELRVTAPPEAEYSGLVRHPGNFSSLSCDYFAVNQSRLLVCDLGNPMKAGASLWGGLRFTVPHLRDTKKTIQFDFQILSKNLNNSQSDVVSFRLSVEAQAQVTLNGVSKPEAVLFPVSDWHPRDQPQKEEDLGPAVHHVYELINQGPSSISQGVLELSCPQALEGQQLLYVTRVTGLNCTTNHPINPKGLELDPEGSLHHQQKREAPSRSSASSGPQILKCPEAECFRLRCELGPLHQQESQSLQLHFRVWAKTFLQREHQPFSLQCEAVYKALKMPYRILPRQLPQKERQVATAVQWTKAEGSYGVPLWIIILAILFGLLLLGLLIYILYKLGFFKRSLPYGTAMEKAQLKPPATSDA
integrin α5β1, sequence (P05556 21-798): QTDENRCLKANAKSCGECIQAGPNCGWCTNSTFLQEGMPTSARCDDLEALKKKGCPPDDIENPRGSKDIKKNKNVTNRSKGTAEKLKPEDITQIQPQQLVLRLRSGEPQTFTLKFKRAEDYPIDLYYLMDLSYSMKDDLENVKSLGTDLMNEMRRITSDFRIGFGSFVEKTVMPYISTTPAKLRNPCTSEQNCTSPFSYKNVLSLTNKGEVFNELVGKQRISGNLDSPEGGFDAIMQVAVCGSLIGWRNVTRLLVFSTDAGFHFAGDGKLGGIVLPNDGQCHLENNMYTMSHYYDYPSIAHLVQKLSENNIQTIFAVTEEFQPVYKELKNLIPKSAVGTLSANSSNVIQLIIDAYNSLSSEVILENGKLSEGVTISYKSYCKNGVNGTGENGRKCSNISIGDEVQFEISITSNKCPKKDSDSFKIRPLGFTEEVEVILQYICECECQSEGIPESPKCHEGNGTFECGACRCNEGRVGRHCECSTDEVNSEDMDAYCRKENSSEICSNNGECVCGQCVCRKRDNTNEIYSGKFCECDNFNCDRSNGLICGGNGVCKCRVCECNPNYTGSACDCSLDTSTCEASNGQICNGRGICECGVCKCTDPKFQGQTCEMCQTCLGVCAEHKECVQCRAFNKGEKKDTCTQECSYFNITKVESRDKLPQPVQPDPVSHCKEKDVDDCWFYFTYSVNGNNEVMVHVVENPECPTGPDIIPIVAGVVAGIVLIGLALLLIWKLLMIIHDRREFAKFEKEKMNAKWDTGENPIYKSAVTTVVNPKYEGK

T2 sequence (P08648 42-894 limits assumed): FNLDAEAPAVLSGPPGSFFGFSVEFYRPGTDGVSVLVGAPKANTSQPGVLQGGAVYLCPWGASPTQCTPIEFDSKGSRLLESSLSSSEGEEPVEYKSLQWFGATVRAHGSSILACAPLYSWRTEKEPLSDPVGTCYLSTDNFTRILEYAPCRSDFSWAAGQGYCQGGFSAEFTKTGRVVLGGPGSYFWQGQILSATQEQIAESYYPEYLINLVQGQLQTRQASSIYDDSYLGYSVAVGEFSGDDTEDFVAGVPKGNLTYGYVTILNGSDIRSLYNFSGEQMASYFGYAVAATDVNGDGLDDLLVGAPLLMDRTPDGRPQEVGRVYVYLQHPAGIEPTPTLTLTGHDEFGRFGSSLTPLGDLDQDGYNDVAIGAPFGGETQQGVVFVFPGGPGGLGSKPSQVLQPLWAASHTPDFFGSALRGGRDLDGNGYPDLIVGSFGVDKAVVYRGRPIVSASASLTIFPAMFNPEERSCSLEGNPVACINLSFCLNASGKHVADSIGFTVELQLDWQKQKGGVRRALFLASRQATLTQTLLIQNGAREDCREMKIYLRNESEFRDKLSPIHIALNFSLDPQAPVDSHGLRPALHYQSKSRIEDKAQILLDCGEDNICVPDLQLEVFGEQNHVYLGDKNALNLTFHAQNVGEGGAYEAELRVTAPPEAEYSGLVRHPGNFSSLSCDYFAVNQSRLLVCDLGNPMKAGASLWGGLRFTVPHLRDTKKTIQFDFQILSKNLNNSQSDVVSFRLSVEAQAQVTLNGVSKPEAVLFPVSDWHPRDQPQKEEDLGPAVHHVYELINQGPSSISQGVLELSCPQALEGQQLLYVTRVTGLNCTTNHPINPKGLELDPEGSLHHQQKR
T2 sequence (P08648 895-1049 limits assumed): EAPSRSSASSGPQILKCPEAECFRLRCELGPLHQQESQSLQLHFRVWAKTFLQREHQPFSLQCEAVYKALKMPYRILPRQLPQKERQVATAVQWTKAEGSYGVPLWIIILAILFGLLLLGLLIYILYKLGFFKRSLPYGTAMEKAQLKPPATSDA
T1 sequence (P08648 42-894 limits assumed): as the sequence (P08648 42-894 limits assumed) above
T1 sequence (P08648 895-1049 limits assumed): as the sequence (P08648 895-1049 limits assumed) above
T1 sequence (P05556 21-798): as the sequence (P05556 21-798) above

For LRRFSTAPFAFIDINDVINF [AXT107], the “interactions between α5 and β1 integrin subunits” value in experiment [1] is “significantly reduced”. The Akt phosphorylation entry in experiment [2] is given as “increased phosphorylation”. In addition, the “receptor phosphorylation and downstream signals of RTKs” value in experiment [3] is “significantly decreases”. Further, the “α5 integrin subunit location in fractionated lysates” value in experiment [4] (100 μM AXT107) is given as “relocated to the insoluble fraction”. In addition, the “α5 integrin after immunoprecipitation of Tie2” value in experiment [4] (Triton X-100 fractionated lysates, with 200 ng/ml Ang2 or no growth factor) is listed as “observed in the peptide-treated, insoluble fraction”. Further, the “binding to integrin α5β1” value in experiment [5] was “binds tightly”.
